Patent publication US20250019427A1 (BYOMASS, published 2025)

T1: GDF15 (Homo sapiens (Human), UniProt Q99988 30-308)
T1 sequence: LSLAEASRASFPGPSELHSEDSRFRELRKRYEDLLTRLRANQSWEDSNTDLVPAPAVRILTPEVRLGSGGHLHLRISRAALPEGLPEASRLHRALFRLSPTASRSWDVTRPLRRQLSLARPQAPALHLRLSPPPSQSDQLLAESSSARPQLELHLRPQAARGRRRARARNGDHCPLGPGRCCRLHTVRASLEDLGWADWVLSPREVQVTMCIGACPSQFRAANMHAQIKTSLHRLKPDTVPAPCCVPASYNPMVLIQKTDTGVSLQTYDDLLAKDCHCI

T2: GDF10 (UniProt P55107 369-478)
T2 sequence (looked up): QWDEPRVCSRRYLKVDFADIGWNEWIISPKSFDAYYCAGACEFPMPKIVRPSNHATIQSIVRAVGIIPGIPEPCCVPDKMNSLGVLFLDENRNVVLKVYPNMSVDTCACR

T3: Human Activin A Fc (human, UniProt P08476 311-426)
T3 sequence (looked up): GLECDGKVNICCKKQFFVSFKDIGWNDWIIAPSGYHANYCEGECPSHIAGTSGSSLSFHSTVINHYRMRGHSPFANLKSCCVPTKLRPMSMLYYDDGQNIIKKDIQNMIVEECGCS

T4: Human Activin B (human, UniProt P09529 293-407)
T4 construct: Also used for the Activin B ligand of the ActRIIB/SMAD reporter assay, where the species is not restated
T4 sequence (looked up): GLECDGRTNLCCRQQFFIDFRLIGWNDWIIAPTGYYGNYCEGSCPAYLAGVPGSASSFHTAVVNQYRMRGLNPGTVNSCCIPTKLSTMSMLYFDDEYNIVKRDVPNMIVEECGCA

T5: Human BMP9 (human, UniProt Q9UK05 320-429)
T5 sequence (looked up): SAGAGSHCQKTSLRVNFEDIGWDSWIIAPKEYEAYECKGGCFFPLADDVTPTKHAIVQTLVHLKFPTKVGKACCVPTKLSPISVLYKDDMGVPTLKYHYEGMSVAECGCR

T6: Human BMP10 (human, UniProt O95393 317-424)
T6 sequence (looked up): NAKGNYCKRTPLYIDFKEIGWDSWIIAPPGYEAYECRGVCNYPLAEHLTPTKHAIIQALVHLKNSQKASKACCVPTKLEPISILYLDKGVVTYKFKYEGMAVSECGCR

T7: GDNF (UniProt P39905 78-211)
T7 sequence (looked up): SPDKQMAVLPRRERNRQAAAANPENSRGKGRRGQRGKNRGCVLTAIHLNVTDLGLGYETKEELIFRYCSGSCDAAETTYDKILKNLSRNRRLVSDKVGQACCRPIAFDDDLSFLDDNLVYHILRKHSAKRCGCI

T8: Cyno GDF15 Fc (cyno, UniProt G7PWZ3 193-308)
T8 construct: also called cyno GDF15-Fc fusion
T8 sequence: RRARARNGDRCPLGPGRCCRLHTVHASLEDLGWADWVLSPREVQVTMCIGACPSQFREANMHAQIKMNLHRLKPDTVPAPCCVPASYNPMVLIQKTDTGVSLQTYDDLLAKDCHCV

T9: Mouse GDF15 Fc (mouse, UniProt Q9Z0J7 189-303, limits assumed)
T9 construct: also called mouse GDF15Fc fusion
T9 sequence (looked up): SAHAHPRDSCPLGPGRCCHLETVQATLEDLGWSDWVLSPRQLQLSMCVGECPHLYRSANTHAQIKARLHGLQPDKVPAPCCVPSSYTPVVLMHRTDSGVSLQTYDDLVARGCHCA


Legend:
GDF15 = target: T1, GDF15; assay: cell-based or functional assay
GDF8 = GDF8 (UniProt O14793 267-375); assay: Octet BLI, IgG on tip, avid
GDF10 = target: T2, GDF10; assay: Octet BLI, IgG on tip, avid
GDF11 = target: T10, GDF11 (UniProt O95390 299-407); assay: Octet BLI, IgG on tip, avid
T10 construct: Also the GDF-11 ligand of the ActRIIB/SMAD reporter assay

Human Activin A Fc = target: T3, Human Activin A Fc; assay: Octet BLI, IgG on tip, avid
Human Activin B = target: T4, Human Activin B; assay: Octet BLI, IgG on tip, avid
Human BMP9 = target: T5, Human BMP9; assay: Octet BLI, IgG on tip, avid
Human BMP10 = target: T6, Human BMP10; assay: Octet BLI, IgG on tip, avid
GDNF = target: T7, GDNF; assay: Octet BLI, IgG on tip, avid
Cyno GDF15 Fc = target: T8, Cyno GDF15 Fc; assay: Octet BLI, Fab monovalent
Mouse GDF15 Fc = target: T9, Mouse GDF15 Fc; assay: Octet BLI, Fab monovalent

T10 sequence (O95390 299-407 limits assumed): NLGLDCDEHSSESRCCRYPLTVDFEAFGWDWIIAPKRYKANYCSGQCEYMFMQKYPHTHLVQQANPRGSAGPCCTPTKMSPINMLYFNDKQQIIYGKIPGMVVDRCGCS

Binder | GDF15 - GFRAL RET pERK IC50 (pM) (GDF15) | GDF15 - GFRAL-RET Luciferase IC50 (pM) (GDF15) | binding result (GDF8) | binding result (GDF10) | binding result (GDF11) | binding result (Human Activin A Fc) | binding result (Human Activin B) | binding result (Human BMP9) | binding result (Human BMP10) | binding result (GDNF) | Kd (GDNF) [nM] | GDF15 GFRAL RET pERK Fab IC50 pM (GDF15) | Kd (Cyno GDF15 Fc) [nM] | Kd (Mouse GDF15 Fc) [nM]
Clone J IgG (antibody, V domains shown, IgG format) VH: QVQLVQSGAEVKKPGASVKVSCKASGYTFTSYGINWVRQAPGQGLEWMGWIDAYSGSTNYAQKLQGRVTMTTDTSTSTAYMELRSLRSDDTAVYYCARGPGQYADVDVWGQGTMVTVSS VL: DIQMTQSPSSVSASVGDRVTITCRASQGISSWLAWYQQKPGKAPKLLIYAASSLQSGVPSRFSGSGSGTDFTLTISSLQPEDFATYYCQQANSFPITFGGGTKVEIKR | 30.3 | 110 | no binding (tested: 100 nM) | no binding (tested: 100 nM) | no binding (tested: 100 nM) | no binding (tested: 100 nM) | no binding (tested: 100 nM) | no binding (tested: 100 nM) | no binding (tested: 100 nM) | – | – | – | – | –
Clone S IgG (antibody, V domains shown, IgG format) VH: QVQLVQSGAEVKKPGASVKVSCKASGYTFTSYGINWVRQAPGQGLEWMGWITAYSGDTNYAQKLQGRVTMTTDTSTSTAYMELRSLRSDDTAVYYCARGPGQYADVDVWGQGTMVTVSS VL: DIQLTQSPSSVSASVGDRVTITCRASQGISPWLAWYQQKPGKAPKLLIYAASSLQSGVPSRFSGSGSGTDFTLTISSLQPEDFATYYCQQANSFPITFGGGTKVEIKR | – | – | no binding (tested: 100 nM) | no binding (tested: 100 nM) | no binding (tested: 100 nM) | no binding (tested: 100 nM) | no binding (tested: 100 nM) | no binding (tested: 100 nM) | no binding (tested: 100 nM) | no binding (tested: 100 nM) | – | – | – | –
Clone T IgG (antibody, V domains shown, IgG format) VH: QVQLVQSGAEVKKPGASVKVSCKASGYTFTSYGINWVRQAPGQGLEWMGWITAYSGDTNYAQKLQGRVTMTTDTSTSTAYMELRSLRSDDTAVYYCARGPGQYADVDVWGQGTMVTVSS VL: DIQMTQSPSSVSASVGDRVTITCRASQGISSWLAWYQQKPGKAPKLLIYAASSLQSGVPSRFSGSGSGTDFTLTISSLQPEDFATYYCQQASQFPITFGGGTKVEIKR | – | – | no binding (tested: 100 nM) | no binding (tested: 100 nM) | no binding (tested: 100 nM) | no binding (tested: 100 nM) | no binding (tested: 100 nM) | no binding (tested: 100 nM) | no binding (tested: 100 nM) | no binding (tested: 100 nM) | – | – | – | –
Clone H IgG (antibody, V domains shown, IgG format) VH: QVQLVQSGAEVKKPGSSVKVSCKASGGTFSSYYISWVRQAPGQGLEWMGGIAPISGTASYAQKFQGRVTITADESTSTAYMELSSLRSEDTAVYYCARGLAYDGYFDLWGRGTLVTVSS VL: not shown | 254 | 200 | no binding (tested: 100 nM) | no binding (tested: 100 nM) | no binding (tested: 100 nM) | no binding (tested: 100 nM) | no binding (tested: 100 nM) | no binding (tested: 100 nM) | no binding (tested: 100 nM) | no binding (tested: 100 nM) | – | – | – | –
Clone K IgG (antibody, V domains shown, IgG format) VH: QVQLVQSGAEVKKPGASVKVSCKASGYTFTNEGISWVRQAPGQGLEWMGWISAYTADTFYAQKLQGRVTMTTDTSTSTAYMELRSLRSDDTAVYYCARTRHDTSGLRFDYWGQGTLVTVSS VL: DIQMTQSPSSVSASVGDRVTITCRASQGIDSWLAWYQQKPGKAPKLLIYAASSLQSGVPSRFSGSGSGTDFTLTISSLQPEDFATYYCQQVHSFPITFGGGTKVEIKR | 187 | 813 | no binding (tested: 100 nM) | no binding (tested: 100 nM) | no binding (tested: 100 nM) | no binding (tested: 100 nM) | no binding (tested: 100 nM) | no binding (tested: 100 nM) | no binding (tested: 100 nM) | – | 333 | – | – | –
Clone K Fab (Fab, V domains shown, Fab format) VH: QVQLVQSGAEVKKPGASVKVSCKASGYTFTNEGISWVRQAPGQGLEWMGWISAYTADTFYAQKLQGRVTMTTDTSTSTAYMELRSLRSDDTAVYYCARTRHDTSGLRFDYWGQGTLVTVSS VL: DIQMTQSPSSVSASVGDRVTITCRASQGIDSWLAWYQQKPGKAPKLLIYAASSLQSGVPSRFSGSGSGTDFTLTISSLQPEDFATYYCQQVHSFPITFGGGTKVEIK | – | – | – | – | – | – | – | – | – | – | – | 169 pM | 2.4 | 333
Clone L Fab (Fab, V domains shown, Fab format) VH: QVQLVQSGAEVKKPGASVKVSCKASGYTFASYDIIWVRQAPGQGLEWMGWISALSGDTVYAQKLQGRVTMTTDTSTSTAYMELRSLRSDDTAVYYCARTRHDTSGIRFDYWGQGTLVTVSS VL: DIQMTQSPSSVSASVGDRVTITCRASQGIDSWLAWYQQKPGKAPKLLIYAASSLQSGVPSRFSGSGSGTDFTLTISSLQPEDFATYYCQQVHSFPITFGGGTKVEIK | – | – | – | – | – | – | – | – | – | – | – | 2.1 µM | 1.56 | 229
Clone M Fab (Fab, V domains shown, Fab format) VH: QVQLVQSGAEVKKPGASVKVSCKASGYTFDSYGINWVRQAPGQGLEWMGWISAYSGDTAYAQELQGRVTMTTDTSTSTAYMELRSLRSDDTAVYYCVRDTQYGGSPYWGQGTLVTVSS VL: EIVMTQSPATLSVSPGERATLSCRASQSVSSNLAWYQQKPGQAPRLLIYGASTRATGIPARFSGSGSGTEFTLTISSLQSEDFAVYYCQQYNNWPITFGGGTKVEIK | – | – | – | – | – | – | – | – | – | – | – | 1370 pM | 1.91 | 31.4
Clone P IgG (antibody, V domains shown, IgG format) VH: QVQLVQSGAEVKKPGATVKVSCKASGYTFDSYGIHWVRQAPGQGLEWMGWITAYSGDTVYAQKLQGRVTMTTDTSTSTAYMELRSLRSDDTAVYYCARESGQTSSALGPWGQGTLVTVSS VL: DIQMTQSPSSVSASVGDRVTITCRASQGISRWLAWYQQKPGKAPKLLIYAASSLQSGVPSRFSGSGSGTDFTLTISSLQPEDFATYYCQQGASFPLTFGGGTKVEIKR | 35.6 | – | no binding (tested: 100 nM) | no binding (tested: 100 nM) | no binding (tested: 100 nM) | no binding (tested: 100 nM) | no binding (tested: 100 nM) | no binding (tested: 100 nM) | no binding (tested: 100 nM) | – | – | – | – | –
